This series can be described thus: soluble fraction after stress (log2 fold change); higher = more stays soluble; pooled small domains, quantitative proteomics. As to conditions: stress: pH 4. The method in brief: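 Pooled custom libraries of small protein domains were stressed at pH 4 and then measured by high-throughput quantitative proteomics. The fold change in the amount of each domain that stays soluble after the acid stress serves as a measure of aggregation propensity. Fold changes are given on a log2 scale, and higher values mean more of the domain stayed soluble.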
For “HMSEEIKVPNFVGSTFEKAQALAQETGLEIARGEDVYSPDQEEGKITSQNPTADSVVSPGKLITVYVSKG”, the “soluble fraction (log2)” value was determined as 0.0365. As for “HMSEIKDRLREARRNKGLSQAGLSKLLGVSQASIAAIESGRNKRPTNLVSIAKALDVSPYWLETGK”, the “soluble fraction (log2)” value came out at 0.0733. As for “HMSEITQTLSMIGKEVTLEIPDEKDKTKTTEVKGIVTEASFKDGTGKVKVNGEYYSIAYITSIRDT”, the “soluble fraction (log2)” value was -0.545. For “HMSEIVEEQNTKLKQAVSKLSKRQQEVLYLKFEEGLDYEQISKIMDLKYQSVRNLVSTAIIKIKEH”, the “soluble fraction (log2)” value came to 0.0707. With “HMSEKELTDLIERIKERRLKLEMSYQDLSDATGISKSTLQRYETGYIKKVPINQIEILAKALHTTPSYLMG”, the “soluble fraction (log2)” value worked out at 0.0791. On to “HMSEKIDINNSNELELKQLPLTNEQIKSLIEFRRLHGEIQNIYELKNIDFFNIEKVHELKAHIEIKKII”, for which the “soluble fraction (log2)” value was -1.05. “HMSELADDPVYTALEKAADKAGLQLTVRILNDLADAVLKRGKKKLTAAQAGKVIARAESELAKSRID”: the “soluble fraction (log2)” value is at least 0.43. The result for “HMSELDASYLGQRVRYVSGFTETDPSEGLVEFRGSNWRARAEHPPLDHSGHWVIVKVESNTLWVEEKSN” reads 0.0761. On to “HMSENEIDELRRRFAREAMALMERKGEEVSRTRLAAELSVARARIDAVFPEESDLLEAVTAEWFA”, for which the “soluble fraction (log2)” value is -0.799. As for “HMSENEVQAKVKEIVDRYAGDKSALIAILQDVQDEYRYLPKEALVSIQQQMNIPLSRVYEVATFYDAFS”, the “soluble fraction (log2)” value is -0.862. With “HMSEPIYTQLKEILTQKIVNGEFPPGARLPSEYELTELYHISRSTVRLALKELEASGMIVRRRGKGTFVSS”, the “soluble fraction (log2)” value was -0.0496. For “HMSEPRYRQLATILAQEIRSNHSAGDQLPSEQALAKRFEVNRHTVRRAVDELVAAGMVTRHQGWGTQVV”, the “soluble fraction (log2)” value came out at 0.243. In the case of “HMSEQGVITAKFASIVGNQNIQLVMFPDSVYLKGQVSSEEEKKRAETVASSLIQDRKIVNLIEFE”, the “soluble fraction (log2)” value was -0.638.

Regarding “HMSEQIALQFAKAKQHHTGIALKGIEALELRYKGYTGKEIAALYHTSPKSVFSWISRAKQKLRQN”, the “soluble fraction (log2)” value was at least 0.43. As for “HMSEQLHALIDRLDDIPDDELKKNWPGTLRDLVDVISAELHRQGIEPAQAGMLARKVAAAQAGYMG”, the “soluble fraction (log2)” value was -0.742.

As for “HMSEQLKQIAERIKELRNIAGLGEEELAAKLDIPVDTYREYESGNVDIPVSFLYKISGMFNVELTAIL”, the “soluble fraction (log2)” value is -1.05. “HMSEQLVGTVGHITVGTARTASPAEAKFLDAFEQPHYLLVEPIEPKDIFQQGDKVVLVKKQHHSWLATRYI”: the “soluble fraction (log2)” value worked out at 0.0779. In the case of “HMSEQTLEDVRRLIEHLPESQKEVVKMRYYQDLSFKEIADLKGISINTALGRMHYAINNMRKMAKEYGL”, the “soluble fraction (log2)” value was -0.473. The figure for “HMSEQVQLQAQVEDDLIGKRLDQVVAQLFPDYSRSRLQGWIKDGSLTVDGESRRPRDKMMGGEVVRVEATL” is -0.347; for “HMSEQVTMIDVEGKTETEAKKALEDLGLKVEITYESADAAAGTVIGQDVKAGSTVSEGSRVTLTVSGQ” it is -0.211; for “HMSERQTGTVKWFNNAKGFGFITMADRPDDIFVHFRAIQGDGYRSLNEGEEVEFSLVEGPKGLQAEEVTK” it is -1.09. Take “HMSESAGKAFDLLFYLAKAGETVSLARLSRETGMNKATALRYLNVLESKGVVERSKLGWTLGLSLFELGSK”: the “soluble fraction (log2)” value is -0.508.

Turning to “HMSESIFTLYGDEKFEKIRYYLKERGFITLDALARFDFDELLFVPGVSELLISEAKQLFSRYDTSSLAAKE”, the “soluble fraction (log2)” value is -0.921.

For “HMSETAEFIIQVNGKVRAKLQLPTDISKEEIQKLALADENVQKYLNGEPRKIIFPPNTRLVSIV”, the “soluble fraction (log2)” value was -0.0446. The figure for “HMSETEEWTVEGGQAGDRIDRHVAAMLGDDVSRSQVQQWIRAGRVTVNGRAVKPSDTVEEGDRVAVDLPEP” is -0.397; for “HMSETVYQYVARQLRDMLGSGEIPVGQQLPTYRELAKRFQVSLSVIQRAMRQLKAEAVVSIAHGQGVKAVR” it is -0.176; for “HMSEVPVLVAKTDIKELELIDDRKVTLINVPQKFKMPGSFNSPEEVYNTIAAVPIKEGEQITKPRVTWP” it is -0.443. The figure for “HMSEVSEILTRARFFAGVKTDAELSTLLKIPYGTLIGWKTRKNIPESRIAQMALILGIRRDTLIPA” is -0.11; for “HMSEYIFGKNVVKEAFNNPSRIEEIYVLDKNMEFVSLAKKYHIKYTVITSSEMNKMVSGNHQGVVALVK” it is -0.264. As for “HMSFDENEALRKALDVFWEKGYDGTSLSDLTEAMGINKPSLYATFGNKDQLFLKAIEMYENR”, the “soluble fraction (log2)” value was -1.44.

In the case of “HMSFDTFKKVFSNLVEKSGYSDAEIARRLGVNRSTISRWKSGEQSPPLPKVKEIANFFGVSPMVFVD”, the “soluble fraction (log2)” value came to 0.0603.

As to “HMSFFNGNQMKILRKKLQLNQEEMGEKLGIKKSYVSQLENNRKEITEEIDQILQELEQEYQDKM”, the “soluble fraction (log2)” value is -0.0582.

Consider “HMSFGESLKKLSIALNSIRKLATTDAGKKDPKVADLLGQIRDTFNSYRTHLRKNYPDLYSGIKNQL”, for which the “soluble fraction (log2)” value is -0.311. On to “HMSFGKKLRSLRQEKKLSQVELSKKLNVTSQALSQYELGKRIPDAEMIIRIADFFDVSVDYLLDRT”, for which the “soluble fraction (log2)” value was -0.137. Regarding “HMSFGWESLENKEGVADTDLHPSGWVRIEDSRIFVVSEGDFINKGSKVTVLTVDGNRVVVRELI”, the “soluble fraction (log2)” value is -1.79. For “HMSFNISPTKKLILELIMNGTAAVEAIAVKAGISKGMAYNHLRELRSMGYITDEGGYKITDSGRLAV”, the “soluble fraction (log2)” value is -0.399. Consider “HMSFNNHYEILQVQPSADREVIEAAAKALLKKHHPDLGGRNTITSHIVQAKKVLTDTSQRADFDARLRERL”, for which the “soluble fraction (log2)” value worked out at 0.165. In the case of “HMSFNSQENKSVLWQFLLENNFFIGLSDKKFNKVKDIFEKNIQSISIVNDSISNKNKILIQKMMEELELL”, the “soluble fraction (log2)” value was -1.46.

As for “HMSFPDTYFKGNKVIGLSYNDLKKFLNNAGYSKFDEEVEEWGEKRVSIEDDMVDFYLEDDKVVSI”, the “soluble fraction (log2)” value was -0.356. The result for “HMSFPFLMPNLEGLQLDQVRVILEENGLEIGQENYQPDSKFGPGTIINHQPSVDTVVQTGQKVNLQISGTD” reads -1.14.

Take “HMSFSSLSNDILSEIQKDNNITYDELSEKLQKDRATIYRNMKKLVENGLLKRVGGRKSGHWEIIE”: the “soluble fraction (log2)” value is at least 0.43. Consider “HMSFVDFYGLFTTELQRLAELPVTADELIKNTGLHKSQLTDWLKRAEEDGVVKKLNRPVRYQVEKK”, for which the “soluble fraction (log2)” value is -0.989. “HMSGAQIQQLLESRAPQPGMNPDMIVRRKTYMNNVFNALKGALLRVANGSSPEEVKTEVDAAIQVDPDKL”: the “soluble fraction (log2)” value was -0.151. As for “HMSGEVLTAVVPETASGERLDKVLPQIFPPYSRSQLQTWLKEGRVTLDREIPAARLAVIGGETLRLEVPSL”, the “soluble fraction (log2)” value is -0.0494. “HMSGFFVYPNPAKSNIIHFPNKKSFYIYDTSGRLLIEGKGKDFIDVSTLDRGVYLLKTFENDIVKIII”: the “soluble fraction (log2)” value is -0.585.

With “HMSGGIVRLAVKPWGEVFVDGASRGITPPLKQLTLDAGVHRIEIRNPAGPSWTKDVDVVAGQPTTVSHRF”, the “soluble fraction (log2)” value is 0.0131.

As for “HMSGITDIITDGKATSRPVVVTDGGHIRVLSPYTSFAIYTLGGMSLPTESRLEPGIYIVVVDSNAVKVAV”, the “soluble fraction (log2)” value was -0.408. “HMSGLGELTPRELEVLELMAQGLSNSQIAGRLFLSGAAVAKHVSSIFSKLGFEPGDENRRVRAILAFLNR”: the “soluble fraction (log2)” value was -0.751.

Regarding “HMSGLLTTSKLAQKHKMKTEPMLEKLTAAGYLEWRDDKHSLTEQGKKAGGQFKTGRFGAYFLWPEDLV”, the “soluble fraction (log2)” value is 0.116.

For the sequence “HMSGPDGLTEREIEVLRLLASGLSNRAIGERLYISTNTAANHVRSILLKTGAANRTQAAMYAADHEML”, the “soluble fraction (log2)” value is 0.0798.

(Values after the domain aggregation screens of Martell et al. (2025).)
